To fix the notation:
T1: recombinant human IL-27 (human, UniProt Q14213 21-229; Q8NEV9 29-243)
T1 construct: Bought from R&D Systems (Cat. 2526-IL); also called hIL-27; rhIL-27
T1 sequence 1: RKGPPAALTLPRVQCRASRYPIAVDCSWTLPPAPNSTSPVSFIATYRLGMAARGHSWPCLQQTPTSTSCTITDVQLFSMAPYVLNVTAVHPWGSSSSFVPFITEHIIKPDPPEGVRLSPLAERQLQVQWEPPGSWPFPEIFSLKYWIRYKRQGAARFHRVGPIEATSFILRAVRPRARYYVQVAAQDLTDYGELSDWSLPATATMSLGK
T1 sequence 2: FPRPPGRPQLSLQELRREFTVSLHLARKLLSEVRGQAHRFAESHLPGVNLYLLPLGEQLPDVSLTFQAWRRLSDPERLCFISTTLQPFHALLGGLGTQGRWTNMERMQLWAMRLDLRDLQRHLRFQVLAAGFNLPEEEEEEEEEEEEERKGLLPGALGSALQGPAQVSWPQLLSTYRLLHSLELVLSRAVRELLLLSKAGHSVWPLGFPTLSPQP

T2: recombinant mouse IL-27 (mouse, UniProt O35228 19-228; Q8K3I6 29-234, limits assumed)
T2 construct: also called rodent recombinant IL-27
T2 sequence (looked up) 1: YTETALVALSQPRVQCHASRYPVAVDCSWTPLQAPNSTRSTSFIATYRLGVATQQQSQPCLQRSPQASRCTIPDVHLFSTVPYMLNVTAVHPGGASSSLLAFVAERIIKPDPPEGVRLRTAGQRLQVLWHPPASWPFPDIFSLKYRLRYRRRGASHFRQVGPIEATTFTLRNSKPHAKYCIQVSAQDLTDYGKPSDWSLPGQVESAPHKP
T2 sequence (looked up) 2: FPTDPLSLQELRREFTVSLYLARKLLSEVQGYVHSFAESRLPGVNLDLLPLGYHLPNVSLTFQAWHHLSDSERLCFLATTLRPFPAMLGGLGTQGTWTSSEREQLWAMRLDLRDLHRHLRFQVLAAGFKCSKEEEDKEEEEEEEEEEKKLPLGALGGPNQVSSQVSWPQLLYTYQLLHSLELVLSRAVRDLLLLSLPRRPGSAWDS

B1: SRF382 (antibody, V domains shown)
VH: EVQLVESGGGLVKPGGSLRLSCAASGFTFSRTGMNWVRQAPGKGLEWVSSISSSSSYIYYADSVKGRFTISRDNAKNSLYLQMNSLRAEDTAVYYCARDGGRTSYTATAHNWFDPWGQGTLVTVSS
VL: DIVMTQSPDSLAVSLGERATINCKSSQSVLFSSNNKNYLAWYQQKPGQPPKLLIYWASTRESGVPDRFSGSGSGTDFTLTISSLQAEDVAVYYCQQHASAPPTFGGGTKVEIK
notes: also called SRF382-A; SRF382-B
B2: SRF384 (antibody, V domains shown)
VH: B1 VH with T32Y, S56A, Y59L
VL: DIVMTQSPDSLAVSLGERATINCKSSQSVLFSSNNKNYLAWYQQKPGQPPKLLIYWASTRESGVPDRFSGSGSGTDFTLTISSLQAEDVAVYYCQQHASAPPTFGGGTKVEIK
notes: also called SRF384-A; SRF384-B
B3: SRF529 (antibody, V domains shown)
VH: B1 VH with R31S, T32Y, G33S
VL: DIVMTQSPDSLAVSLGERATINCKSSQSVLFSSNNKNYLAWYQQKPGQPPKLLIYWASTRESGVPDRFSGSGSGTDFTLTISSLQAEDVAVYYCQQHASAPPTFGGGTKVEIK
notes: also called SRF529-A; SRF529-B
B4: SRF557 (antibody, V domains shown)
VH: QVQLVQSGAEVKKPGSSVKVSCKASGGTFSSYAISWVRQAPGQGLEWMGGIIPIFGTANYAQKFQGRVTITADESTSTAYMELSSLRSEDTAVYYCARLGGRGYADEGWYFDLWGRGTLVTVSS
VL: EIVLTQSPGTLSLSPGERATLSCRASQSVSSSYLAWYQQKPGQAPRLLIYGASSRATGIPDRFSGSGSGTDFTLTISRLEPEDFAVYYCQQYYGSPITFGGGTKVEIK
notes: also called SRF557-A; SRF557-B
B5: SRF416 (antibody, V domains shown)
VH: QVQLQQWGAGLLKPSETLSLTCAVYGGSFSGYYWSWIRQPPGKGLEWIGEIDVDGSTNYNPSLKSRVTISVDTSKNQFSLKLSSVTAADTAVYYCARDGYYYDTSPYDVWGQGTMVTVSS
VL: EIVLTQSPATLSLSPGERATLSCRASQSVSSYLAWYQQKPGQAPRLLIYDASNRATGIPARFSGSGSGTDFTLTISSLEPEDFAVYYCQQRDSFPLTFGGGTKVEIK
notes: also called SRF416-A; SRF416-B
B6: SRF536 (antibody, V domains shown)
VH: QVQLQQWGAGLLKPSETLSLTCAVYGGSFSEYYWAWIRQPPGKGLEWIGEIDEVGSTNYNPSLKSRVTISVDTSKNQFSLKLSSVTAADTAVYYCARLPMYYYDSSDLPMDVWGQGTTVTVSS
VL: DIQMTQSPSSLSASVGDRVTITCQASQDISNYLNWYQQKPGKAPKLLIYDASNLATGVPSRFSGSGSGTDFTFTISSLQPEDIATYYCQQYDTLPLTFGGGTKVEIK
notes: also called SRF536-A; SRF536-B
B7: SRF543 (antibody, V domains shown)
VH: QVQLQQWGAGLLKPSETLSLTCAVYGGSFSDYEWSWIRQPPGKGLEWIGEIDWSGITNYNPSLKSRVTISVDTSKNQFSLKLSSVTAADTAVYYCARLPMYYYDSSVSTGSVDVWGQGTMVTVSS
VL: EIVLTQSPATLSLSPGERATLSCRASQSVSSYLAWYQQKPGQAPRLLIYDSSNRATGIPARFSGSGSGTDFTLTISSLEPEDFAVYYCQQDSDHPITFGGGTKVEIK
notes: also called SRF543-A; SRF543-B
B8: Ab7 (antibody)
heavy: EVKLVESGGGLVQPGGSLKLFCAASGFTFTSYSMSWVRQTPEKRLEWVAYISYDGGSAYYPDTVKGRFSISRDNAKKTLYLQMSSLKSEDTAMYYCARHGDYDDDDAMDYWGQGTSVTVSSAKTTAPSVYPLAPVCGDTTGSSVTLGCLVKGYFPEPVTLTWNSGSLSSGVHTFPAVLQSDLYTLSSSVTVTSSTWPSQSITCNVAHPASSTKVDKKIEPRGPTIKPCPPCKCPAPNLLGGPSVFIFPPKIKDVLMISLSPIVTCVVVDVSEDDPDVQISWFVNNVEVHTAQTQTHREDYNSTLRVVSALPIQHQDWMSGKEFKCKVNNKDLPAPIERTISKPKGSVRAPQVYVLPPPEEEMTKKQVTLTCMVTDFMPEDIYVEWTNNGKTELNYKNTEPVLDSDGSYFMYSKLRVEKKNWVERNSYSCSVVHEGLHNHHTTKSFSRTPGK
light: DIQMTQSPASLSASVGETVTITCRASENIYSYLAWYQQKQGKSPQLLVYNAETLTEGVPSRFSGSGSGTQFSLKINSLQPEDFGNYYCQHHYGTPLTFGAGTKLDLKADAAPTVSIFPPSSEQLTSGGASVVCFLNNFYPKDINVKWKIDGSERQNGVLNSWTDQDSKDSTYSMSSTLTLTKDEYERHNSYTCEATHKTSTSPIVKSFNRNEC
notes: mouse hybridoma antibody (mIgG2a/kappa); also called isolated anti-EBI3 antibody Ab7; parental Ab7 antibody
B9: Ab7.14 (antibody, human IgG1, kappa, V domains shown)
VH: EVKLVESGGGLVQPGGSLRLSCAASGFTFTSYSMSWVRQAPGKGLEWVAYISYDGGSAYYPDTVKGRFTISRDNSKKTLYLQMNSLRAEDTAVYYCARHGDYDDDDAMDYWGQGTLVTVSS
VL: DIQMTQSPSSLSASVGDRVTITCRASENIYSYLAWYQQKPGKAPKLLVYNAETLTEGVPSRFSGSGSGTDFTLTISSLQPEDFATYYCQHHYGTPLTFGQGTKLEIKR
notes: human IgG1/kappa
B10: Ab7.18 (antibody, human IgG1, kappa, V domains shown)
VH: B9 VH with K3Q, K77N
VL: B9 VL
notes: human IgG1/kappa
B11: Ab7.20 (antibody, human IgG1, kappa, V domains shown)
VH: B9 VH with K3Q, A49S, K77N
VL: B9 VL with P40Q, T85N, E105D
notes: human IgG1/kappa
B12: Ab7.22 (antibody, human IgG1, kappa, V domains shown)
VH: B9 VH with K3Q, A49S, K77N
VL: B9 VL
notes: human IgG1/kappa
B13: Ab7.21 (antibody, human IgG1, kappa, V domains shown)
VH: B9 VH with K3Q, A49S, K77N
VL: B9 VL with T85N
notes: human IgG1/kappa
B14: Ab7.16 (antibody, human IgG1, kappa, V domains shown)
VH: B9 VH with K3Q, K77N
VL: B9 VL with P40Q, T85N, E105D
notes: human IgG1/kappa

Where a chain is given by its changes, count along the chain named.

One test deals with T1, recombinant human IL-27. Nature of the test: SPR (BIACORE 2000) as the paragraph says; values in FIG. 9.
As for B1, the Kd is at most 15 nM.

B2: the equilibrium dissociation constant (Kd) was at most 15 nM.

For the next test, the target named is T2, recombinant mouse IL-27. Put plainly: column 'Affinity mIL-27 (M)'; method not given.
Regarding B1, the Kd worked out at 2.5 nM.

B3: the Kd was determined as 1.33 nM.

As to B2, the Kd came out at 0.405 nM.

With B4, the binding result is on record as “no binding”.

In the case of B5, the binding result is given as “no binding”.

Turning to B6, the dissociation constant (Kd) is 80.5 nM.

As for B7, the dissociation constant Kd was 62.1 nM.

As for B8, the binding result is recorded as “no binding”.

In the next test the target is T1, recombinant human IL-27. Put plainly: SPR, hIL-27 on CM5 chip, bivalent analyte model (ka1). How it is done: (§1) The antibodies were further characterized by surface plasmon resonance (SPR). Kinetic experiments were performed on a Biacore T200 (GE Healthcare, Uppsala, Sweden). All experiments were run at 25° C. with HBS-P+ running buffer (pH 7.4) (GE Healthcare, Little Chalfont, UK) using hIL-27 (R&D Systems, Abingdon, UK). Human IL-27 (hIL-27) antigen was captured on a CM5 chip to ˜16 RU. Immobilization was carried out at a protein concentration of 1 μg/mL in 10 mM acetate buffer pH 5.0. A three point, three-fold dilution range from 3.3 nM to 30 nM of antibody diluted in HBS-P+ buffer without regeneration between each concentration was used. The association phase for the three injections of increasing concentrations of antibody was monitored for 75 seconds each time and a single dissociation phase was measured for 250 seconds following the last injection of antibody. Regeneration of the hIL-27 surface was conducted using a single injection of 2M MgCl₂ for 120 s. Multiple repeats (n=4) of the chimeric antibody were performed throughout the assay to check the stability of the surface and analyte over the kinetic cycles.
(§2) Both 1:1 binding and bivalent analyte models were used to analyze the data due to the bivalent nature of the antibody. The results from the 1:1 binding model analysis are summarized in Table 4 and results from the bivalent analyte model are summarized in Table 5.
Consider B9, for which the on-rate constant (kon) worked out at 700000 M⁻¹ s⁻¹.

B10: the on-rate constant (kon) amounted to 570000 M⁻¹ s⁻¹.

As to B11, the association rate constant (kon) came to 620000 M⁻¹ s⁻¹.

In the case of B12, the kon came out at 580000 M⁻¹ s⁻¹.

In the case of B13, the association rate constant (kon) worked out at 550000 M⁻¹ s⁻¹.

In the case of B14, the kon amounted to 570000 M⁻¹ s⁻¹.

The next test deals with T1, recombinant human IL-27. Nature of the test: SPR (Biacore T200), hIL-27 on CM5 chip, single cycle, 1:1 model. The protocol: as §1, §2
As for B9, the dissociation constant (Kd) was determined as 1.2 nM, the “Relative KD to Ab7.1” value was determined as 1.2, the koff was determined as 0.0018 s⁻¹ and the kon amounted to 1.5e+06 M⁻¹ s⁻¹.

For the molecule B10, the Kd turned out to be 1.5 nM, the “Relative KD to Ab7.1” value was determined as 1.4, the koff turned out to be 0.0019 s⁻¹ and the kon stood at 1.3e+06 M⁻¹ s⁻¹.

B11: the Kd amounted to 1.4 nM, the “Relative KD to Ab7.1” value stood at 1.4, the koff was 0.0018 s⁻¹ and the kon was 1.3e+06 M⁻¹ s⁻¹.

Regarding B12, the Kd was found to be 1.5 nM, the “Relative KD to Ab7.1” value is 1.5, the koff turned out to be 0.0019 s⁻¹ and the kon is 1.3e+06 M⁻¹ s⁻¹.

B13: the dissociation constant (Kd) stood at 1.5 nM, the “Relative KD to Ab7.1” value came out at 1.5, the dissociation rate constant (koff) turned out to be 0.0019 s⁻¹ and the on-rate constant (kon) came to 1.2e+06 M⁻¹ s⁻¹.

As for B14, the Kd was 1.5 nM, the “Relative KD to Ab7.1” value came out at 1.4, the koff was found to be 0.0018 s⁻¹ and the kon worked out at 1.3e+06 M⁻¹ s⁻¹.

The next test deals with T1, recombinant human IL-27. Put plainly: column 'Affinity hIL-27 (M)', property (i); method not given, paragraph 885 names SPR (BIACORE 2000).
For B1, the equilibrium dissociation constant (Kd) turned out to be 0.0075 nM.

In the case of B3, the equilibrium dissociation constant (Kd) was found to be 0.0059 nM.

Consider B2, for which the dissociation constant Kd came out at 0.0024 nM.

In the case of B6, the Kd was found to be 0.048 nM.

In the case of B7, the equilibrium dissociation constant (Kd) came out at 0.026 nM.

B8: the Kd amounted to 1 nM.

The next test addresses T1, recombinant human IL-27. Nature of the test: SPR, hIL-27 on CM5 chip, bivalent analyte model (kd1). How it is done:
as §1, §2
For B9, the koff is 0.0026 s⁻¹.

Regarding B10, the koff is 0.0028 s⁻¹.

As for B11, the off-rate constant (koff) was determined as 0.0025 s⁻¹.

Take B12: the koff amounted to 0.0027 s⁻¹.

For the molecule B13, the koff was determined as 0.0027 s⁻¹.

Regarding B14, the koff was determined as 0.0027 s⁻¹.

The target of the next test is T1, recombinant human IL-27. Nature of the test: SPR, hIL-27 on CM5 chip, bivalent analyte model. How it is done: as §1, §2
On to B9, for which the ka2 is 0.039 1/RUs and the kd2 turned out to be 0.099 s⁻¹.

With B10, the ka2 is 0.053 1/RUs and the kd2 came to 0.11 s⁻¹.

In the case of B11, the ka2 was 0.036 1/RUs and the kd2 came out at 0.086 s⁻¹.

As for B12, the ka2 was 0.49 1/RUs and the kd2 amounted to 1.11 s⁻¹.

Consider B13, for which the ka2 was 0.043 1/RUs and the kd2 is 0.097 s⁻¹.

Consider B14, for which the ka2 is 0.04 1/RUs and the kd2 was determined as 0.091 s⁻¹.

The values are drawn from US20190382474A1 (SURFACE ONCOLOGY, published 2019).
